Data set [1] concerns the target T1, TGFβ1 (Homo sapiens, UniProt P01137 P01137:279-390). In words: filter; boundary experiment, each terminus separately. As to conditions: tags: Genentech or R&D Systems; chain copies: 2.
For data set [2], the target named is T1, TGFβ1. Nature of the data set: filter; 2'-OH RNA. As to conditions: tags: Genentech; biotinylated version used in bead assay; chain copies: 2.
In data set [3] the target is T1, TGFβ1. In words: filter; 2'-OH RNA; printed lib1-6-8 in Table 4. As to conditions: tags: Genentech; biotinylated version used in bead assay; chain copies: 2.
Data set [4] deals with PDGF-BB (Homo sapiens, UniProt P01127 P01127:82-190). Nature of the data set: competition; PDGF alpha-receptor PAE cells, 4 C. Conditions: tags: R&D Systems, E. coli; chain copies: B chain dimer; three-way helix junction. On the procedure: The binding of ¹²⁵I-PDGF-AA and ¹²⁵I-PDGF-BB to porcine aortic endothelial (PAE) cells transfected with PDGF α- or β-receptors were performed as described (Heldin et al., (1988) EMBO J. 7:1387-1394). Different concentrations of DNA ligands were added to the cell culture (1.5 cm²) in 0.2 ml of phosphate buffered saline supplemented with 1 mg bovine serum albumin per ml together with ¹²⁵I-PDGF-AA (2 ng, 100,000 cpm) or ¹²⁵I-PDGF-BB (2 ng, 100,000 cpm). After incubation at 4° C. for 90 min, the cell cultures were washed and cell associated radioactivity determined in a γ-counter (Heldin et al., (1988) EMBO J. 7:1387-1394).
In order to determine whether the DNA ligands to PDGF were able to inhibit the effects of PDGF isoforms on cultured cells, the effects on binding of ¹²⁵I-labeled PDGF isoforms to PDGF α- and β-receptors stably expressed in porcine aortic endothelial (PAE) cells by transfection was determined.

For data set [5], the target named is T1, TGFβ1. In words: filter; cell IC50 298 and 201 nM. Conditions: tags: Genentech; biotinylated version used in bead assay; chain copies: 2.
For data set [6], the target named is T1, TGFβ1. Nature of the data set: filter; cell IC50 103 and 112 nM; fully effective only against TGFβ1, not TGFβ2 or TGFβ3. Conditions: tags: Genentech; biotinylated version used in bead assay; chain copies: 2.
The target in data set [7] is T1, TGFβ1. Nature of the data set: filter; C to G at position 53; not inhibitory. Conditions: tags: Genentech; biotinylated version used in bead assay; chain copies: 2.
Data set [8] has as its target T1, TGFβ1. Nature of the data set: filter; 37 C, KRH buffer. As to conditions: tags: Genentech; biotinylated version used in bead assay; chain copies: 2.
For data set [9], the target named is T2, KGF (hKGF) (Homo sapiens, UniProt P21781 P21781:32-194).
T2 sequence: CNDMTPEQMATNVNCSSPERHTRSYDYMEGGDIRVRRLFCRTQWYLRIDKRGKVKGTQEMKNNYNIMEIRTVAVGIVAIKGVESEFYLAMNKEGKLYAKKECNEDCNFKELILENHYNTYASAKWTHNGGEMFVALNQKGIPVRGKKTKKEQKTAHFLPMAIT
In words: filter; 43-mer, shortest active truncate; retains high and low affinity components. As to conditions: tags: Upstate Biotechnology; pseudoknot (predicted). The method, then:
In an effort to identify shorter KGF ligands that retained binding, the binding activity of various deletions of the shortest truncate of ligand 14F, namely 14F3′T were tested. Deletions were tested in all the structural elements of the proposed pseudoknot structure. RNA transcripts containing 2′F pyrimidines and 2′OH purines were obtained by in vitro transcription using synthetic DNA templates. The activity of each ligand is shown by scoring for both the high (H) and low (L) affinity component of the 14F3′T binding curve with +(active) or −(not active). Truncates T35 and T36 represent two complementary halves of 14F3′T molecule and were additionally tested as an equimolar mixture. The structural elements of the proposed pseudoknot structure are separated by (1) and are indicated by symbols S1 (stem 1), S2 (stem 2), L1 (loop 1) and L3 (loop 3). The proposed pseudoknot structure for 14F3′T is a non-H-type pseudoknot and lacks L2 (loop 2). The complementary sequences forming S1 (S1 and S1′) and S2 (S2 and S2′) are marked by single and double underlines respectfully. In the tabulated sequences, deleted bases were replaced with periods (.). […] Deletions in loop 3 (L3), however, were tolerated as long as one copy of the RRYY box remained intact. The shortest ligand that retained activity is T22 which is a 43-mer. […]

Data set [10] addresses T2, KGF (hKGF). Nature of the data set: filter; similar to random RNA. Conditions: tags: Upstate Biotechnology; label: 32P.
Data set [11] has as its target T1, TGFβ1. In words: filter; not inhibitory; no binding with 2'-NH2 pyrimidines. Conditions: tags: Genentech; biotinylated version used in bead assay; chain copies: 2.
In data set [12] the target is T1, TGFβ1. In words: filter; cell IC50 22 nM. As to conditions: tags: Genentech; biotinylated version used in bead assay; chain copies: 2.
Data set [13] has as its target T1, TGFβ1. In words: cell_activity. As to conditions: tags: Genentech or R&D Systems; chain copies: 2. The method, then:
MLEC-Pail/luc cells were plated at 3.2×10⁴ cells per well in a 96 well Falcon plate, in 100 μl of DME+10% fetal bovine serum overnight. Media was made from autoclaved water. The cells were washed three times ([…]) in serum free DME plus Solution A (1:1). Solution A is 30 mM Hepes pH 7.6, 10 mM glucose, 3.0 mM KCl, 131 mM NaCl, 1.0 mM disodium phosphate. Samples (100 μl) were added in DME containing 20 mM Hepes pH 7.5, and 0.1% BSA (Fluka, radioimmunoassay grade). All samples were in triplicate. After six hours at 37° C. in a 5% CO₂ incubator the media was removed and cells were washed three times (100 μl each) in cold PBS. Lysis buffer (75 μl) (Analytical Luminescence Laboratory) was added and the plates incubated on ice for 20 min. The plates were sealed and frozen at −80° C. until assayed. Samples (25 μl) were assayed for luciferase activity with the Enhanced Luciferase Assay Kit from Analytical Luminescence Laboratory (San Diego, Calif., USA) according to the manufacturer's instructions using the Berthold Microlumat LB96P luminometer.
Ligands tested for inhibition of TGFβ1 activity were tested at a minimum of five concentrations. The ligands were serially diluted in DME, 20 mM Hepes pH 7.5, 0.1% Fluka BSA in polypropylene tubes and an equal volume of media containing 12 pM TGFβ1 was added to each tube, vortexed and transferred to the cells without further incubation.

In data set [14] the target is T2, KGF (hKGF). Nature of the data set: filter; biphasic, high affinity 21%; Kd2 2.10 nM. Conditions: tags: Upstate Biotechnology; label: 32P.
The target of data set [15] is T1, TGFβ1. In words: filter; cell IC50 119 nM. As to conditions: tags: Genentech; biotinylated version used in bead assay; chain copies: 2.

T1 sequence (P01137 279-390, one chain of several): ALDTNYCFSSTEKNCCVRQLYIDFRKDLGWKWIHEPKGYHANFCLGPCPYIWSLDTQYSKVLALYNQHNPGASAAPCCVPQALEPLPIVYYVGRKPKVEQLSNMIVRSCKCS
Chain of PDGF-BB (P01127 82-190, one chain of several): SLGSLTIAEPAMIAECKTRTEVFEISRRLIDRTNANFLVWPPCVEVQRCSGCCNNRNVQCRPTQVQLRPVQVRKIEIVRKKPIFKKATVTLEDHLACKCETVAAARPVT

B1: lib4-12 boundaries (ssRNA)
RNA: GGAGAACGCGGAUCCUGAGAAGGACGUCGGGGUCAACGGGGUGAGGUGCAGCAGAAAGGGCCGGCACCA
modifications: modified pyrimidines
On to B1, for which, in [1], the binding result is on record as “binds”.

B2: lib1-20-12 (ssRNA)
RNA: GGGGGAGAACGCGGAUCCGGUCACCCGGGCAUAUAACAAUGCCGACACUGGGGUACCUGGGACGGGUGGGACUGGACGGAAGAAGCUUCGCUCUAGAUCUCCCUUUAGUGAGGGUUA
For orientation: Kd means the equilibrium constant for the complex coming apart. Lower therefore signals a tighter complex. In data set [2], B2 gave a Kd of 3.1 nM.

B3: lib2-6-8 (lib1-6-8 in Table 4) (ssRNA)
RNA: GGGGGAGAACGCGGAUCCAUAACCGGCUGCAUGGGAGGGACAUCCUGGGAAAGGACGGGUCGAGAUGACCUGAGCAGUUCCGGCAAGCUUCGCUCUAGAUCUCCCUUUAGUGAGGGUUA
For B3, the Kd in data set [3] amounted to 4.7 nM.
Broadly, the IC50 is the concentration that inhibits the measured activity by half. In data set [4], TACTCAGGGCACTGCAAGCAATTGTGGTCCCAATGGGCTGAGTAT (ssDNA, 3'-3' idT) [41t] showed an IC50 of about 1 nM.

B4: lib2-6-1-81 (ssRNA)
RNA: GGGGGAGAACGCGGAUCCUGUCUCCACCGCCGAUACUGGGGUUCCUGGGGCCCCUCCAUGCAGGAGGGGGGUGGUUCGGAG
modifications: 2'-NH2 U, 2'-F C
In the case of B4, in data set [5], the Kd amounted to 10.7 nM.

B5: lib2-6-1 (ssRNA)
RNA: GGGGGAGAACGCGGAUCCUGUCUCCACCGCCGAUACUGGGGUUCCUGGGGCCCCUCCAUGCAGGAGGGGGGUGGUUCGGAGAAAGCUUCGCUCUAGAUCUCCCUUUAGUGAGGGUUA
modifications: 2'-NH2 U, 2'-F C
For the molecule B5, the Kd in data set [6] came out at 14.3 nM.

B6: lib8-23 (ssRNA)
RNA: GGGGGAGAACGCGGAUCCUGUCUCCACCGCCGAUACUGGGGUUCCUGGGGCCGCUCCAUGCAGGAGGGGGGUGGUUCGGAGAAAGCUUCGCUCUAGAUCUCCCUUUAGUGAGGGUUA
modifications: 2'-NH2 U, 2'-F C
B6 gave a Kd in data set [7] of 6.6 nM.

B7: lib3-3 (ssRNA)
RNA: GGGGGAGAACGCGGAUCCGAGCAACCCCAGGCGCAUAGCUUCCGAGUAGACAGGAGGGAGGGGUGGAUGUGGCGUCUACUCGGUGUCGUGAAGCUUCGCUCUAGAUCUCCCUUUAGUGAGGGUUA
modifications: 2'-NH2 pyrimidines
As to B7, the affinity in data set [8], expressed as Kd, was 1.7 nM. This lies in the single-digit nanomolar range.
Consider TGGGAGGGCGCGTTCTTCGTGGTTACTTTTAGTCCCGT (ssDNA, 3'-3' idT) [20t], for which the IC50 in [4] was about 1 nM.
As to GGGAGGACGAUGCGGUGGUCUCCCAAUUCUUCUCCAUCGUAUC (ssRNA, 2'-F pyrimidines) [T22], the binding result in data set [9] is on record as “binds”.

B8: 59N (ssRNA)
RNA: GGGAGGACGAUGCGGGGUGGGUGGUUACCUGUAAUUAUAUUGAUUCUGGCUUUAGCAGACGACUCGCCCGA
modifications: 2'-NH2 pyrimidines
In turn, B8 gave a Kd in data set [10] of 22 nM.
On to GCUUCCGAGUAGACAGGAGGGAGGGGUGGAUGUGGCGUCUAC (ssRNA, modified pyrimidines) [lib3-13 boundaries (38-79)], for which, in data set [1], the binding result is on record as “binds”.

B9: lib1-20-3 (ssRNA)
RNA: GGGGGAGAACGCGGAUCCUGCUAGACCGAGGAUGCAAAGGGACAUGCAUUAGGGAAACCUAUGUAUAAGAACGCGGUCGCAGAAGCUUCGCUCUAGAUCUCCCUUUAGUGAGGGUUA
modifications: 2'-F pyrimidines
As to B9, the Kd in data set [11] was determined as 30 nM.

B10: 65N (ssRNA)
RNA: GGGAGGACGAUGCGGUAACGUGGAAUAGGGUUAAACAGCUGGAAAUAACGUAGGUGGCCAGACGACUCGCCCGA
modifications: 2'-NH2 pyrimidines
B10: the Kd in [10] is 26.6 nM.

B11: 57N (ssRNA)
RNA: GGGAGGACGAUGCGGUCGUGGGGUGGGUGGGGGCAGCGUUGGAAUAAGUAACUGGUAACGGCUGGCCAGACGACUCGCCCGA
modifications: 2'-NH2 pyrimidines
For the molecule B11, in [10], the dissociation constant (Kd) was 35.8 nM.

B12: lib3-42 (ssRNA)
RNA: GGGGGAGAACGCGGAUCCGGUGGGAAAGUCGGAUUAUGUGUGUAGAUUUGUGUGCGAAAGCUUCGCUCUAGAUCUCCCUUUAGUGAGGGUUA
modifications: 2'-NH2 pyrimidines
The molecule B12 came in with a Kd in data set [12] of 0.6 nM. In data set [13], it took 22 nM to reach half-maximal inhibition (IC50).

B13: 50F (ssRNA)
RNA: GGGAGGACGAUGCGGUGAUCAAUCGGCGCUUUACUCUUGCGCUCACCGUGCCCCAGACGACUCGCCCGA
modifications: 2'-F pyrimidines
Take B13: in [14], the Kd is 0.12 nM.

B14: lib3-44 (ssRNA)
RNA: GGGGGAGAACGCGGAUCCUGAGAAGGACGUCGGGGUGAGGUGCAGCAGAAAGGGCCGGCACCACAUGACGUAAAAGCUUCGCUCUAGAUCUCCCUUUAGUGAGGGUUA
modifications: 2'-NH2 pyrimidines
On to B14, for which, in data set [15], the affinity, expressed as Kd, was 1.3 nM. Moreover, in [13], the IC50 is 119 nM.

(Values after patent publication US20030180744, “High affinity oligonucleotide ligands to growth factors” (GILEAD SCIENCES, INC., published 2003).)
